Drawing on patent US20030103903A1, this text covers amount of soluble peptide needed to completely inhibit binding for one molecule.

This experiment has as its target IgE of unfractionated patient serum (pool of patients' sera known to be reactive to the epitope peptide) (human). Description: inhibition: whole patients' sera pre-incubated with soluble peptide, then probing solid-phase E1 peptide.

Molecule QGLRGEEMEEMV [soluble form of the epitope peptide …] had an amount of soluble peptide needed to completely inhibit binding of 70 µg.
